The values below come from patent US20200383981.

The data set has as its system wild-type human IDO1.

On to human Src Y530F, for which the “tyrosine phosphorylation of human IDO1 Tyr249 (ITIM2), western blot of SW837 IDO1WT lysate” value is “Expression of human Src Y530F in SW837 IDO1WT cells was shown to enhance tyrosine phosphorylation of human IDO1 Tyr249 (ITIM2)”.
